Experimental data: US12398178 (PARABILIS MEDICINES, dated 2025)
Positions of bridges follow the written chain, without caps; N, C: chain ends. No end group written: not given here. Linker 15a = not defined here; Linker 15b = not defined here; Linker 10 = not defined here; Linker 11 = not defined here; Linker 12 = not defined here; Linker 13 = not defined here; Linker 16 = not defined here; Linker 7 = not defined here

T1: full-length β-Catenin (UniProt P35222 2-781, limits assumed)
T1 construct: mature; also called beta-catenin; beta-Catenin
T1 sequence (looked up): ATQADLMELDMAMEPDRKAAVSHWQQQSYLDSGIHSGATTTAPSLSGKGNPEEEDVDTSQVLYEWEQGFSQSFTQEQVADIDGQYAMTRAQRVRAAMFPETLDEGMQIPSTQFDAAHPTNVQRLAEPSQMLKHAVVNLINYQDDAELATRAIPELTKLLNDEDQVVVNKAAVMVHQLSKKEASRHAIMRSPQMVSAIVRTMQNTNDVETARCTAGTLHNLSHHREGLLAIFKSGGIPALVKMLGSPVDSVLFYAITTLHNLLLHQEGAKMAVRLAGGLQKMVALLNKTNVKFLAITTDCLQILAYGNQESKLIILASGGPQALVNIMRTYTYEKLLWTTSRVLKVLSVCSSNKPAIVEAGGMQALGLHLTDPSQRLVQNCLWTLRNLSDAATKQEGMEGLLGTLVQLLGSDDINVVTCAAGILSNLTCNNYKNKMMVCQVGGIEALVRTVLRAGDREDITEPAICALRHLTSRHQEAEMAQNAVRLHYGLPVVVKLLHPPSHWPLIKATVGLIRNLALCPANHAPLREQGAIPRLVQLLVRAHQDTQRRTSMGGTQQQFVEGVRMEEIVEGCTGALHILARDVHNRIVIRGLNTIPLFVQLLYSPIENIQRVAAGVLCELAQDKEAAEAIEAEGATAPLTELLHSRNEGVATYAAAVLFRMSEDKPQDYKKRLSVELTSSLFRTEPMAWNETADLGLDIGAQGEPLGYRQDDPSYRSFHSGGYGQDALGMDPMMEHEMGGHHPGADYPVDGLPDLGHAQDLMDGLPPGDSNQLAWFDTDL


target: T1, full-length β-Catenin; assay: competition fluorescence polarization vs FITC-Axin peptide probe on full-length beta-catenin
Procedure: Peptide assessment: In one assay for assessing binding to beta-catenin, peptide solutions were prepared in buffer (50 mM Tris pH 8.0, 250 mM NaCl, 2% glycerol, 0.5 mM EDTA, 0.02% w/v sodium azide) using a 3-fold serial dilution from 5 μM. Probe solution (15 nM full-length β-Catenin, 20 nM FITC labeled Axin peptide in buffer ([FAM-PEG1-RRWPR(S5)ILD(S5)HVRRVWR (SEQ ID NO: 44)] where the two S5 residues are stapled, as reported in: Proc Natl Acad Sci USA. 2012 Oct. 30; 109(44):17942-7)) was prepared and incubated for 5 minutes, then 40 μL per well plated in a black polystyrene 384-well plate (Corning). Equal volume of the titrated peptide was added to the plate and incubated protected from light for 15 minutes prior to read. Reads were performed on a Spectramax M5 (Molecular Devices) in duplicate.

Row | Binder | EC50
1 | ADPALWACEHAALICETQ (linker 8-15 via Linker 13 (inferred); reading uncertain, synthetic cysteine-stapled peptide) [Peptide ID 43, ADPALWACEHAALICETQ, staple type Linker 13] | 4.59 µM
2 | ADPAPWQCEHAALLCELE (linker 8-15 via Linker 7 (inferred); reading uncertain, synthetic cysteine-stapled peptide) [Peptide ID 11, ADPAPWQCEHAALLCELE, staple type Linker 7] | 0.922 µM
3 | ADPAYWLCEHAALICEVE (linker 8-15 via Linker 7 (inferred); reading uncertain, synthetic cysteine-stapled peptide) [Peptide ID 13, ADPAYWLCEHAALICEVE, staple type Linker 7] | 0.456 µM
4 | ADPATHRCEWAALHCELV (linker 8-15 via Linker 11 (inferred); reading uncertain, synthetic cysteine-stapled peptide) [Peptide ID 32, ADPATHRCEWAALHCELV, staple type Linker 11] | 5.17 µM
5 | ADPALWACEHAALICETQ (linker 8-15 via Linker 7 (inferred); reading uncertain, synthetic cysteine-stapled peptide) [Peptide ID 2, ADPALWACEHAALICETQ, staple type Linker 7] | 2.8 µM
6 | ADPATHRCEWAALHCELV (linker 8-15 via Linker 7 (inferred); reading uncertain, synthetic cysteine-stapled peptide) [Peptide ID 1, ADPATHRCEWAALHCELV, staple type Linker 7] | 5.2 µM
7 | ADPAQDHCILDTHICRIW (linker 8-15 via Linker 7 (inferred); reading uncertain, synthetic cysteine-stapled peptide) [Peptide ID 6, ADPAQDHCILDTHICRIW, staple type Linker 7] | 0.047 µM
8 | ADPAEDECILNNHICRIW (linker 8-15 via Linker 7 (inferred); reading uncertain, synthetic cysteine-stapled peptide) [Peptide ID 7, ADPAEDECILNNHICRIW, staple type Linker 7] | 0.014 µM
9 | ADPALWACEHAALICETQ (linker 8-15 via Linker 11 (inferred); reading uncertain, synthetic cysteine-stapled peptide) [Peptide ID 41, ADPALWACEHAALICETQ, staple type Linker 11] | 3.02 µM
10 | ADPALWACEHAALICETQ (linker 8-15 via Linker 15b (inferred); reading uncertain, synthetic cysteine-stapled peptide) [Peptide ID 45, ADPALWACEHAALICETQ, staple type Linker 15b] | 5.57 µM
11 | ADPAQWPCEHAALLCEIE (linker 8-15 via Linker 7 (inferred); reading uncertain, synthetic cysteine-stapled peptide) [Peptide ID 14, ADPAQWPCEHAALLCEIE, staple type Linker 7] | 0.404 µM
12 | ADPATHRCEWAALHCELV (linker 8-15 via Linker 12 (inferred); reading uncertain, synthetic cysteine-stapled peptide) [Peptide ID 33, ADPATHRCEWAALHCELV, staple type Linker 12] | 5.35 µM
13 | ADPALWACEHAALICETQ (linker 8-15 via Linker 15a (inferred); reading uncertain, synthetic cysteine-stapled peptide) [Peptide ID 44, ADPALWACEHAALICETQ, staple type Linker 15a] | 7.33 µM
14 | ADPALWACEHAALICETQ (linker 8-15 via Linker 10 (inferred); reading uncertain, synthetic cysteine-stapled peptide) [Peptide ID 40, ADPALWACEHAALICETQ, staple type Linker 10] | 9.55 µM
15 | ADPAEDECILAAHMCRWW (linker 8-15 via Linker 7 (inferred); reading uncertain, synthetic cysteine-stapled peptide) [Peptide ID 8, ADPAEDECILAAHMCRWW, staple type Linker 7] | 0.255 µM
16 | ADPALWACEHAALICETQ (linker 8-15 via Linker 16 (inferred); reading uncertain, synthetic cysteine-stapled peptide) [Peptide ID 46, ADPALWACEHAALICETQ, staple type Linker 16] | 5.82 µM
17 | ADPATHRCEWAALHCELV (linker 8-15 via Linker 13 (inferred); reading uncertain, synthetic cysteine-stapled peptide) [Peptide ID 34, ADPATHRCEWAALHCELV, staple type Linker 13] | 4.32 µM
18 | ADPALADCILAAHMCQLW (linker 8-15 via Linker 7 (inferred); reading uncertain, synthetic cysteine-stapled peptide) [Peptide ID 4, ADPALADCILAAHMCQLW, staple type Linker 7] | 5.52 µM
19 | ADPAQWHCEHAALICELD (linker 8-15 via Linker 7 (inferred); reading uncertain, synthetic cysteine-stapled peptide) [Peptide ID 10, ADPAQWHCEHAALICELD, staple type Linker 7] | 0.417 µM
20 | ADPALWACEHAALICETQ (linker 8-15 via Linker 12 (inferred); reading uncertain, synthetic cysteine-stapled peptide) [Peptide ID 42, ADPALWACEHAALICETQ, staple type Linker 12] | 4.52 µM
21 | ADPADWECEHAALICDAM (linker 8-15 via Linker 7 (inferred); reading uncertain, synthetic cysteine-stapled peptide) [Peptide ID 12, ADPADWECEHAALICDAM, staple type Linker 7] | 0.815 µM
22 | ADPAHAECVLDYHICQIW (linker 8-15 via Linker 7 (inferred); reading uncertain, synthetic cysteine-stapled peptide) [Peptide ID 5, ADPAHAECVLDYHICQIW, staple type Linker 7] | 0.117 µM
